From the supplement of paper PMC12764529
± gives the half width of the 95% confidence interval.

Assay: folding stability dG unfold from chymotrypsin proteolysis; higher = more stable
Procedure, shortened: (§1)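 Mini-proteins designed to be under 80 residues and free of cysteine were carried in a PA-tagged cDNA display construct and digested with trypsin and with chymotrypsin. Each protease was applied at 11 threefold-diluted concentrations, alongside a no-protease condition, before sequencing. K50 came from Bayesian fitting of the sequencing counts, and unfolding free energy was obtained by comparing it with a sequence-predicted unfolded-state K50 and a shared folded-state K50, for each protease separately or for both together. Designs were retained only if their AlphaFold2 dimer inter-PAE exceeded 15.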

Sequence | folding stability dG unfold [kcal/mol]
SAGGSAGGSAGGSMPVKLDEIIDYDPKKKVLTVLLTHPDGSKSLVVVPGKSIEEIKEANSAGGSAGGSAGGS [r4_357_TrMRF] | 0.709 ± 0.029
SAGGMKITKEGNELTLTYPNLTVTYDPNTGKMTITNPATGKTVTIPVPATSLEEKLAAVEEVKAALPSAGGS [r8_447_JUSTAS] | 0.707 ± 0.042
SAGGEEEILRQIREAAKKGEEVTIVFPKGMSIEELKKLIEEELGVEVEEIKVEKNENGELTVTIKVKSAGGS [r16_318_TrROS_Hall] | 2.99 ± 0.11
SAGGSAMTTTTSTDPATNKTYVTVTFPKDEALVEEVKEELKKKGIKEIKVYEFPENDLVRVEITVGSAGGSA [r2_358_JUSTAS] | 0.767 ± 0.13
SAGGKTIWIFFPPDNPEEFLEELAQLPNVTDVEVWRHNDYYMIEIRLEGLPIEIHYNPEGYYMIEIELSAGG [r13_907_TrROS] | 3.71 ± 0.074
SAGGSAGGSPDEGDPVKITILIMIMIPNENGEPYFIFIRVEITIDPKDNKIQITKIDEIYIFPSAGGSAGGS [r12_358_TrROS] | 4.66 ± 0.1
SAMIVKDLKTKEEIKKVLEEIAKKLGYPNVTPEEAEEILKKIGVKILSIEKNPKNPEKYIIKIKIEKPKSAG [r14_678_JUSTAS] | 2.34 ± 0.033
SAGGPPVAEIRVTEEDPETGVVRMEATLPEAPRPVRATGTRLDPGGGTVLVTVTDPDGGPDTTTTLAASAGG [r13_337_JUSTAS] | 0.221 ± 0.12
SAGGSAATTVAVNGKEITIVSVDPATGKVTIAVPENVPESVIQAAKDLLEAQGLPVEVKRVPPEKLSAGGSA [r15_570_JUSTAS] | 1.3 ± 0.013
SVPADAKPGVVPERVVLVIVVPPELLDEDGRLRPENLEIAAGEAAEAARKLREAFPDVPIEDVGVVVVEGSA [r9_943_TrMRF] | 0.466 ± 0.029
SAGKKTVTIVIRLKEPGERLSAEELAALLRELGLPPGAKVTVERRPDGYLVVTVEVDGKTVTIVIELEDSAG [r5_144_TrROS_Hall] | 2.516 ± 0.019
SAGGSAGGSAGGGSITITFKHPDGGEVTIEITPPEPTVRVTVTLPNGEKLEYEFDFVPASAGGSAGGSAGGS [r10_595_TrMRF] | 3.68 ± 0.11
SAGGNNIMIWIRKNPKEGKRKIMIYTDSPSWVEMIAEEAKDPGFKIVGPMTVEEAAQKMGFPPDLFISAGGS [r16_438_TrROS] | 1.29 ± 0.15
SAGGKIEEVARELAKELNAVSIDFRTEGDVPSVEIRFRIPGSPLWLRVTITRDPDGNISVSIEPDPRSAGGS [r16_433_TrMRF] | 4.16 ± 0.074
SAGGSAGGIEITEISRSEELLKLDVPEDTLVLKVKHPDGKEIEVTFPANIPIEEAKEKAKEFVESAGGSAGG [r6_986_TrMRF] | -0.176 ± 0.15
SAGGSASRRLFVRTLPDDAVIVVEVPPGMSEEEAVEIAERRAEAAERVLRAAIEAERAGKAPVIPLSAGGSA [r15_704_TrMRF] | -0.0499 ± 0.29
SAGGSAKRKVEIEIVLSAEELEEAIKEGKPLSEELQKRIEELLKKAEEAGIDEVRIRIVPPGLPEPSAGGSA [r15_304_TrROS_Hall] | 1.22 ± 0.036
SAGGSAPDNKPKPVVREVEFWIMIPFKSAEQAKEIVEELMKFFGGLKVEILEVHPDGYAMIKITIYSAGGSA [r15_387_TrROS] | 5.38 ± 0.072
SAGGSPARPVLVTITLPDGEEVTRRMTLEEIERLVAKDPNVKVTIELPDGSVYTVDPNTGTITKAPSAGGSA [r2_222_JUSTAS] | 2.49 ± 0.026
SAGGKTLYVVRITRRVRVDGKLYEVTLTLVAESEEEAEEALRKLAEELEALFPDEIRIEVEKVELPPSAGGS [r16_475_TrROS_Hall] | 5.7 ± 0.24
SAGGSAGGSMKVVVTAKLPGGEVLQKTIPVDESVLKKMSKEEVIELLKKEGLPENVEIKFEPKSAGGSAGGS [r12_742_JUSTAS] | 2.17 ± 0.15

Assay: folding stability dG unfold (combined trypsin and chymotrypsin); higher = more stable
Procedure, shortened: as §1

Sequence | folding stability dG unfold [kcal/mol]
SAGGSAGGSAGGMKVIKLPGLTVEIEPGYSPSEPVKITITDPKTGKVTEYEIKIPPEELPSAGGSAGGSAGG [r7_834_JUSTAS] | 1.13 ± 0.042
SAGGDEIVERVRQLFEDLGFPVEIVDDDAPDGVLRVRISPEAVEKLGPLVINLPFPDIKEVRTELLPSAGGS [r8_318_TrMRF] | 1.26 ± 0.025
SAGGSAGGSAGDVPPSETVTITVSSEAEKEAIKKEHPEVNLTFTEAEPPVAFDPTSDVTASAGGSAGGSAGG [r17_126_JUSTAS] | 1.21 ± 0.17
SAGMIKVEVVVPPEDPSKPPSEEELRALAEEVVRELGLDPAKHPIEIKREVVDPEKGVLRYTITVKLPSAGG [r19_244_JUSTAS] | 2.96 ± 0.11
SAGGSFEPKREIEITLPNGREIEVWRYPGEGQMWVKLRFPNNGQKVEIPVKSPEDAEDSLKKFLKNSAGGSA [r2_70_TrROS] | -0.169 ± 0.25
SAMRIVVPYRETLRLTGLPEDTPLEEFRERFERIFRRLMERGVRPVRIEIYEIGDERYIVVEIETPGGASAG [r14_158_TrMRF] | 3.62 ± 0.041
SAGGSMVSEEEIKEIVEKTAAELPEDAVEPVTVTIELPNPDGTTTVLTITITRSPTSISYTVSSSPAASAGG [r19_220_JUSTAS] | 3.34 ± 0.039
SAGGSAGGKKTVEIEMTVDELLAALKSLSEEELKNVKIIGKDGKEFTLEDLEKNPGKIYKIEVKSAGGSAGG [r6_428_TrROS_Hall] | 1.82 ± 0.16
SLGPLVELAELFPDFEPLGVEEEPLEDGGRLLRVIGRIPEIGAYLLIEVRLPPGGGIESIRAEWVPEDELSA [r9_274_TrMRF] | 3.95 ± 0.11
SAGGMESTSIPLEFKFEGDEEKAKKKVEEEAKKIAEEKGIEIKIEVKFDPNKPTATVTILVKGKEVEESAGG [r13_845_JUSTAS] | -0.285 ± 0.22
SAGGSAGGSAGGSGMVNLPEPIKVTKEEPLPDGSVRYTIEYPDSTITVFKYPDGIKIESSAGGSAGGSAGGS [r4_280_JUSTAS] | 0.393 ± 0.1
SAGSPEELAEKIAEELAAEYEKKNPDKKPVKIEVKEVVVDPEGGSVTIKIKFYDPDGKPLAEPVITVESAGG [r19_53_JUSTAS] | 1.76 ± 0.21
SGSSLLSETTEFVELPDDTFATVSTSTYYIPGSGEIVTKTTVTIYPPTGPPVTTTYTSTTTPEGVLVTESSA [r9_856_JUSTAS] | 3.31 ± 0.2
SAGGSAGGSAGGKPKLIVRVKIKNENGEEIEIEIEVETLDEAKEAAKKLGFEIVEVEVLSAGGSAGGSAGGS [r10_882_TrROS_Hall] | 3.28 ± 0.19
SEAEEAARKLAEELGLEVEVVEVDEETGTVTVRVRFEDEPTVTITITFDEETGELTVTIEVRPPPPPPPESA [r9_1119_TrROS_Hall] | 3.72 ± 0.43
SAGGSAGGSAGGKTITLPPGMSEEELLEALKKAKPGDTITIEVDGKTYTLKVENGKITLTSAGGSAGGSAGG [r7_560_TrROS_Hall] | 3.56 ± 0.12
SAGGSAGGSKPELVIPITFPVLVKNPLDGKIYPVKVEIHIFYYPDKPIIEITLINPDGKPFPFSAGGSAGGS [r12_283_TrMRF] | 1.93 ± 0.066
SAGGSAGGSAMTPEELLKAAEELAKKLNLKVEIEVKKNENGELTITVKVYKNGKLVKEFEIKSAGGSAGGSA [r18_369_TrROS_Hall] | 4.82 ± 0.16
SAGGDGPPKFEPISIPIGDGVIKIWRSPNGSIHLEIMPPGGKPVASKEYPFPDGRKLKLDIQVKPPEDSAGG [r13_584_TrROS] | 0.466 ± 0.14
SAGGKVTLRAPVVVPKDKIEDFIDALREALEALGLKEFKDIEIKEIIEGDDYYIIDFEVTAEADLPELASAG [r5_575_TrMRF] | 2.32 ± 0.13
SAGGSAGGSAGKTYTLTITTENGKTITLPKDVEVVYDEKTGYLYIKNKKTNKVIKVKLKDSAGGSAGGSAGG [r17_432_TrROS_Hall] | 2.19 ± 0.079

Sequence | folding stability dG unfold [kcal/mol]
SAGGSAGGSAGGSMPVKLDEIIDYDPKKKVLTVLLTHPDGSKSLVVVPGKSIEEIKEANSAGGSAGGSAGGS [r4_357_TrMRF] | 0.648 ± 0.098
SAGGMKITKEGNELTLTYPNLTVTYDPNTGKMTITNPATGKTVTIPVPATSLEEKLAAVEEVKAALPSAGGS [r8_447_JUSTAS] | 0.918 ± 0.041
SAGGEEEILRQIREAAKKGEEVTIVFPKGMSIEELKKLIEEELGVEVEEIKVEKNENGELTVTIKVKSAGGS [r16_318_TrROS_Hall] | 4.07 ± 0.26
SAGGSAMTTTTSTDPATNKTYVTVTFPKDEALVEEVKEELKKKGIKEIKVYEFPENDLVRVEITVGSAGGSA [r2_358_JUSTAS] | 0.685 ± 0.14
SAGGKTIWIFFPPDNPEEFLEELAQLPNVTDVEVWRHNDYYMIEIRLEGLPIEIHYNPEGYYMIEIELSAGG [r13_907_TrROS] | 3.48 ± 0.16
SAGGSAGGSPDEGDPVKITILIMIMIPNENGEPYFIFIRVEITIDPKDNKIQITKIDEIYIFPSAGGSAGGS [r12_358_TrROS] | 4.42 ± 0.12
SAMIVKDLKTKEEIKKVLEEIAKKLGYPNVTPEEAEEILKKIGVKILSIEKNPKNPEKYIIKIKIEKPKSAG [r14_678_JUSTAS] | 2.29 ± 0.14
SAGGPPVAEIRVTEEDPETGVVRMEATLPEAPRPVRATGTRLDPGGGTVLVTVTDPDGGPDTTTTLAASAGG [r13_337_JUSTAS] | 0.0684 ± 0.12
SAGGSAATTVAVNGKEITIVSVDPATGKVTIAVPENVPESVIQAAKDLLEAQGLPVEVKRVPPEKLSAGGSA [r15_570_JUSTAS] | 1.33 ± 0.05
SVPADAKPGVVPERVVLVIVVPPELLDEDGRLRPENLEIAAGEAAEAARKLREAFPDVPIEDVGVVVVEGSA [r9_943_TrMRF] | 0.705 ± 0.046
SAGKKTVTIVIRLKEPGERLSAEELAALLRELGLPPGAKVTVERRPDGYLVVTVEVDGKTVTIVIELEDSAG [r5_144_TrROS_Hall] | 2.34 ± 0.056
SAGGSAGGSAGGGSITITFKHPDGGEVTIEITPPEPTVRVTVTLPNGEKLEYEFDFVPASAGGSAGGSAGGS [r10_595_TrMRF] | 3.58 ± 0.14
SAGGNNIMIWIRKNPKEGKRKIMIYTDSPSWVEMIAEEAKDPGFKIVGPMTVEEAAQKMGFPPDLFISAGGS [r16_438_TrROS] | 1.27 ± 0.2
SAGGKIEEVARELAKELNAVSIDFRTEGDVPSVEIRFRIPGSPLWLRVTITRDPDGNISVSIEPDPRSAGGS [r16_433_TrMRF] | 3.75 ± 0.09
SAGGSAGGIEITEISRSEELLKLDVPEDTLVLKVKHPDGKEIEVTFPANIPIEEAKEKAKEFVESAGGSAGG [r6_986_TrMRF] | -0.188 ± 0.18
SAGGSASRRLFVRTLPDDAVIVVEVPPGMSEEEAVEIAERRAEAAERVLRAAIEAERAGKAPVIPLSAGGSA [r15_704_TrMRF] | 0.342 ± 0.11
SAGGSAKRKVEIEIVLSAEELEEAIKEGKPLSEELQKRIEELLKKAEEAGIDEVRIRIVPPGLPEPSAGGSA [r15_304_TrROS_Hall] | 1.16 ± 0.12
SAGGSAPDNKPKPVVREVEFWIMIPFKSAEQAKEIVEELMKFFGGLKVEILEVHPDGYAMIKITIYSAGGSA [r15_387_TrROS] | 5.15 ± 0.11
SAGGSPARPVLVTITLPDGEEVTRRMTLEEIERLVAKDPNVKVTIELPDGSVYTVDPNTGTITKAPSAGGSA [r2_222_JUSTAS] | 2.63 ± 0.14
SAGGKTLYVVRITRRVRVDGKLYEVTLTLVAESEEEAEEALRKLAEELEALFPDEIRIEVEKVELPPSAGGS [r16_475_TrROS_Hall] | 5.5 ± 0.25
SAGGSAGGSMKVVVTAKLPGGEVLQKTIPVDESVLKKMSKEEVIELLKKEGLPENVEIKFEPKSAGGSAGGS [r12_742_JUSTAS] | 1.81 ± 0.24
